The source of these data is publication PMC3804942 (The Journal of Experimental Medicine, 2013).

Series [1] addresses T1, RAGE V-C1 (crystallography) (human, UniProt Q15109 23-237). The series can be described thus: X-ray crystallography.
For series [2], the target named is T2, RAGE extracellular domain V-C1-C2 (His) (human, UniProt Q15109 23-342). The experiment in a line: AlphaScreen.
For series [3], the target named is T1, RAGE V-C1 (crystallography). The experiment in a line: X-ray crystallography. The source holds these as a separate data set.
The next series concerns the target RAGE V domain (His) (human, UniProt Q15109 23-121). The series can be described thus: AlphaScreen. On the technique in general: Alpha assays give light when donor and acceptor beads are brought close together.
In series [4] the target is T2, RAGE extracellular domain V-C1-C2 (His). The series can be described thus: AlphaScreen. The source holds these as a separate data set.
The series “crystal structure” deals with the molecule itself. The experiment in a line: crystal structure.
For a further series, the target named is RAGE mutant 0 (UniProt Q15109 23-237, K110A;R178A;R179A). The experiment in a line: fluorescence polarization.

Read-outs that look alike come from different tables or passages of the source.

B1: ODN 981/982 CpG 22mer (dsDNA)
DNA 1: CTGCAACGATGCTACGAACGTG
DNA 2: CACGTTCGTAGCATCGTTGCAG
As to B1, the binding result in series [1] is recorded as “binds”.
Take GGGGACGACGTCGTGGGGGGG (ssDNA, phosphorothioate at positions marked * (G*G*GGACGACGTCGTGG*G*G*G*G*G)) [ODN 2336 (CpG-A)]: the binding result in series [2] is listed as “binds”.

B2: ODN 752/753 vaccinia repeat 22mer (dsDNA)
DNA 1: CCATGACTGTAGGAAACTCTAG
DNA 2: GCTAGAGTTTCCTACAGTCATG
For B2, the binding result in series [3] is “binds”.
As to TCGTCGTTTTGTCGTTTTGTCGTT (ssDNA, backbone of assayed form not in material; probably phosphorothioate) [ODN 2006 (CpG-B)], the binding result (in the series with RAGE V domain (His); in series [4]) was “binds” each time.

B3: Human RAGE V-C1 domain (residues 23-237) (domain or fragment)
chain: AQNITARIGEPLVLKCKGAPKKPPQRLEWKLNTGRTEAWKVLSPQGGGPWDSVARVLPNGSLFLPAVGIQDEGIFRCQAMNRNGKETKSNYRVRVYQIPGKPEIVDSASELTAGVPNKVGTCVSEGSYPAGTLSWHLDGKPLVPNEKGVSVKEQTRRHPETGLFTLQSELMVTPARGGDPRPTFSCSFSPGLPRHRALRTAPIQPRVWEPVPLEE
For the molecule B3, the binding result in “crystal structure” is “binds”.

B4: ODN 787/788 20mer (dsDNA)
DNA 1: CCATCAAAGAGAGAAAGAGC
DNA 2: GCTCTTTCTCTCTTTGATGG
With B4, the binding result with RAGE mutant 0 was “binds”.
